{
  "source": "paper PMC5736413",
  "about": "(Journal of immunology (Baltimore, Md. : 1950), 2017)",
  "binders": {"B1": {"name": "recombinant mouse C3d (C1010A) (domain or fragment)", "chain": "not shown"}},
  "target": "recombinant mouse Factor H (mouse, UniProt P06909 19-1234)",
  "sequence (P06909 19-1234)": "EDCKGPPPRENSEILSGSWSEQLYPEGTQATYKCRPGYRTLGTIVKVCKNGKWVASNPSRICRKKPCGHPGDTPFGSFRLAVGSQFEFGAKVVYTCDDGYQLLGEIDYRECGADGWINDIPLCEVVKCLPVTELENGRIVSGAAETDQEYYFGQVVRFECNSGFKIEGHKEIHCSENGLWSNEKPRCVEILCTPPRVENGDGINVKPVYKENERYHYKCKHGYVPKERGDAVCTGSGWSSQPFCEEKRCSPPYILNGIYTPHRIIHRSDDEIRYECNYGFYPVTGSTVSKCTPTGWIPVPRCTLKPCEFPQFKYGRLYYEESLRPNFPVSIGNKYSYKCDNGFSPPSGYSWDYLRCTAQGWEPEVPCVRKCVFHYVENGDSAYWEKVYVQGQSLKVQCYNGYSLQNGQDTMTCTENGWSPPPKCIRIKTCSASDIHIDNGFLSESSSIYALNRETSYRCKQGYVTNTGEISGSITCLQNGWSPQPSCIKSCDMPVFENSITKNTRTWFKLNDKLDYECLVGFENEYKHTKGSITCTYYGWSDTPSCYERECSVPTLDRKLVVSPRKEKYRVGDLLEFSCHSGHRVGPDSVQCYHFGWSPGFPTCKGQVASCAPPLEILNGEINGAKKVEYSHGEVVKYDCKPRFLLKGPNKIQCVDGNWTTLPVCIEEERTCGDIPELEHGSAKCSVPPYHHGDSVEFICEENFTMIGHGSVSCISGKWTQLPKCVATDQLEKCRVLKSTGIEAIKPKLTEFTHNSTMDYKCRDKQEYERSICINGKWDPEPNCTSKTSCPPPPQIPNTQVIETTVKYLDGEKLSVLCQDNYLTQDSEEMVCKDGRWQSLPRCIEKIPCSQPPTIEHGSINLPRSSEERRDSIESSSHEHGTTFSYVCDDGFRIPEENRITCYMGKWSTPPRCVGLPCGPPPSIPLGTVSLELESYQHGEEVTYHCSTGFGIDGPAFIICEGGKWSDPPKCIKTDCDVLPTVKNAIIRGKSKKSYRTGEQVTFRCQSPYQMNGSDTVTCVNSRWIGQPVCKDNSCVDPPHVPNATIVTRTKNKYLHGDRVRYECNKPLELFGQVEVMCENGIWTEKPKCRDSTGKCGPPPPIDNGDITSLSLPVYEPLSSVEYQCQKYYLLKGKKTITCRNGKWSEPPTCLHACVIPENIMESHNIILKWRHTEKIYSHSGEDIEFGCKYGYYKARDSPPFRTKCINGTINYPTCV",
  "assay": "SPR",
  "data": [
    {"binder": "B1", "values": [
      {"measurement": "Kd", "value": 3.85, "unit": "µM"}
    ]}
  ]
}
